{"source": "paper PMC8551276", "key": {"[1]": {"biological_target": "HIV-1 HXB2 Env glycoprotein labelled with super folder GFP (GFPOPT) in the V4 loop of gp120, on pseudovirions (HIV-1 HXB2) (UniProt P04578)", "experiment": "FRET or BRET; single-virus Eapp traces, dwell times as CDF; mature virions engaged with living MT-4 T cells; room temperature"}, "[2]": {"biological_target": "HIV-1 HXB2 Env glycoprotein labelled with super folder GFP (GFPOPT) in the V4 loop of gp120, on pseudovirions (HIV-1 HXB2) (UniProt P04578)", "experiment": "FRET or BRET; single-virus Eapp traces, dwell times as CDF; virions on MT-4 T cells with 100 µg/mL PGT145"}, "[3]": {"biological_target": "HIV-1 HXB2 Env glycoprotein labelled with super folder GFP (GFPOPT) in the V4 loop of gp120, on pseudovirions (HIV-1 HXB2) (UniProt P04578)", "experiment": "FRET or BRET"}, "[4]": {"biological_target": "HIV-1 HXB2 Env glycoprotein labelled with super folder GFP (GFPOPT) in the V4 loop of gp120, on pseudovirions (HIV-1 HXB2) (UniProt P04578)", "experiment": "FRET or BRET; single-virus Eapp traces (3 s per frame, 5 min), dwell times as cumulative distribution functions; mature virions in vitro, unliganded; room temperature"}, "[5]": {"biological_target": "HIV-1 HXB2 Env glycoprotein labelled with super folder GFP (GFPOPT) in the V4 loop of gp120, on pseudovirions (HIV-1 HXB2) (UniProt P04578)"}, "[6]": {"biological_target": "HIV-1 HXB2 Env glycoprotein labelled with super folder GFP (GFPOPT) in the V4 loop of gp120, on pseudovirions (HIV-1 group M subtype B, isolate HXB2) (UniProt P04578)"}}, "data": [{"substance": "HIV-1 HXB2 Env glycoprotein labelled with super folder GFP (GFPOPT) in the V4 loop of gp120, on pseudovirions (from UniProt P04578) (complex)", "values": [{"measurement": "CDF average lifetime of the high FRET regime (Env-Env interactions), virions on MT-4 T cells", "setting": "[1]", "result": 53, "unit": "s"}, {"measurement": "CDF average lifetime of the high FRET regime (Env-Env interactions), on T cells with PGT145", "setting": "[2]", "result": 10, "unit": "s"}, {"measurement": "CDF average lifetime of the high FRET regime (Env-Env interactions), with sCD4", "setting": "[3]", "result": 16, "unit": "s"}, {"measurement": "CDF average lifetime of the high FRET regime (Env-Env interactions)", "setting": "[4]", "result": 68, "unit": "s"}]}, {"substance": "Human soluble CD4 recombinant protein (sCD4_(D1-D4)) (domain or fragment)", "values": [{"measurement": "CDF average lifetime of the closed Env conformation (0.12<Eapp<0.23) on mature virions with 10 µg/mL sCD4 (154 s without)", "setting": "[5]", "result": 75, "unit": "s"}, {"measurement": "CDF average lifetime of the open Env conformation (Eapp<0.12) on mature virions with 10 µg/mL sCD4 (84 s without)", "setting": "[5]", "result": 241, "unit": "s"}]}, {"substance": "anti-HIV-1 gp120 monoclonal, b12 (antibody)", "values": [{"measurement": "CDF average lifetime of the closed Env conformation, virions on MT-4 T cells with 100 µg/mL b12 (63 s without)", "setting": "[6]", "result": 125, "unit": "s"}, {"measurement": "CDF average lifetime of the open Env conformation, virions on MT-4 T cells with 100 µg/mL b12 (168 s without)", "setting": "[6]", "result": 61, "unit": "s"}]}]}
